The text below walks through data of paper PMC4990751 (Molecules and Cells, 2016).

This data set deals with the molecule itself. Put plainly: SEC. (Size exclusion chromatography separates by hydrodynamic size, large species first.)

B1: T105C-PaAhpC (enzyme, Pseudomonas aeruginosa PAO1, UniProt Q9I6Z3 1-187, looked up)
chain: MSLINTQVQPFKVNAFHNGKFIEVTEESLKGKWSVLIFMPAAFTFNCPTEIEDAANNYGEFQKAGAEVYIVTTDTHFSHKVWHETSPAVGKAQFPLIGDPTHQLCNAFGVHIPEEGLALRGTFVINPEGVIKTVEIHSNEIARDVGETVRKLKAAQYTAAHPGEVCPAKWKEGEKTLAPSLDLVGKI
As a reminder, the stoichiometry N is a count of units in the complex or per binding partner. In the case of B1, the “stoichiometry N” value amounted to 10.
